Results reported in US20110098212A1 (LONDON SCHOOL OF HYGIENE AND TROPICAL MEDICINE, published 2011).

What was measured:
[1] = molecular target: human chemokine receptor CCR5 (human, UniProt P51681 1-352)
[2] = molecular target: T1, chemokine receptor CCR1 (human, UniProt P32246 1-355); test: cell-based or functional assay
T1 sequence (looked up): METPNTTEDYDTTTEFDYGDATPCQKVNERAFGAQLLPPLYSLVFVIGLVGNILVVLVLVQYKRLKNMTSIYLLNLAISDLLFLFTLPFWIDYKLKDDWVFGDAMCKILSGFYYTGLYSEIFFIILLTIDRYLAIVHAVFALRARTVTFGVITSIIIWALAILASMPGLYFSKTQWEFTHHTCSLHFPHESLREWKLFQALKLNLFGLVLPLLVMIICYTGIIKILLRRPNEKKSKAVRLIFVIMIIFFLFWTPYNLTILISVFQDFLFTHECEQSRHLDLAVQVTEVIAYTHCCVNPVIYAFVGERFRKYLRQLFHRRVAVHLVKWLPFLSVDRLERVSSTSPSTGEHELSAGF

[3] = molecular target: chemokine receptor CCR8 (human, UniProt P51685 1-355); test: cell-based or functional assay
[4] = molecular target: T2, chemokine receptor CCR6 (human, UniProt P51684 1-374); test: cell-based or functional assay
T2 sequence (looked up): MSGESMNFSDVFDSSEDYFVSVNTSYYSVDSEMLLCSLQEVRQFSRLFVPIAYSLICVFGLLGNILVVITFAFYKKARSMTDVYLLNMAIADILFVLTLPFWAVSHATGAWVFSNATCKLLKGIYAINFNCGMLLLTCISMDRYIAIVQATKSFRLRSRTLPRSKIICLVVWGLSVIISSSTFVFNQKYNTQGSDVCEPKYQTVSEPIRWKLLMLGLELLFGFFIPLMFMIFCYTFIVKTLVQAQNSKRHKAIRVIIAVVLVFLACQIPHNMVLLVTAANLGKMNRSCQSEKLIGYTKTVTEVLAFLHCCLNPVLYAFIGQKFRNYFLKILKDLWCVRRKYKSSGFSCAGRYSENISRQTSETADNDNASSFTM

[5] = molecular target: T3, chemokine receptor CCR4 (human, UniProt P51679 1-360); test: cell-based or functional assay
T3 sequence (looked up): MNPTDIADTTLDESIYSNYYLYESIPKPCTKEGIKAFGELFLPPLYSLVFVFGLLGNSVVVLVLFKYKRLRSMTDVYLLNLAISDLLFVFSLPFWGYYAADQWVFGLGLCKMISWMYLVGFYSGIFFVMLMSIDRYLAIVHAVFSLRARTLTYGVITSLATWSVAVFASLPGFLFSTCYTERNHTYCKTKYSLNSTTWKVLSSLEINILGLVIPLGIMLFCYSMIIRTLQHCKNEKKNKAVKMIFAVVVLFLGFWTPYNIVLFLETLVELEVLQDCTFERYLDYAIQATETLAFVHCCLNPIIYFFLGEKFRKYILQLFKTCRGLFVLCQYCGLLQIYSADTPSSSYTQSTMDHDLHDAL

Sequence of human chemokine receptor CCR5 (P51681 whole entry): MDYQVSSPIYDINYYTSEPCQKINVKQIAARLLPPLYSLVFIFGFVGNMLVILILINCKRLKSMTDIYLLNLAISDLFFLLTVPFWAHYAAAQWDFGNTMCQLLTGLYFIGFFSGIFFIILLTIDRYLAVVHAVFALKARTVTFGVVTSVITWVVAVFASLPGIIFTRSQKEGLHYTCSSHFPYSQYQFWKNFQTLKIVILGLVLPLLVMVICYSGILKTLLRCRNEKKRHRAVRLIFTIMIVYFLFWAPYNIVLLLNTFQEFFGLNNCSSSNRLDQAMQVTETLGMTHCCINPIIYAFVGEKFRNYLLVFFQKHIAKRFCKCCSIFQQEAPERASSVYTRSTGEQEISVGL

B1: HHV-6 U83A, native full length mature chemokine (ligand)
chain: FICSSPDAELFSEKSRMSSSVLLGCLLCCMDWSAAVPGKTEPFRKLFDAIMIKKLKSCSAAYPSDLEQGSMCDMADASPTSLELGLSKLDKES
IC50 [1]: 0.11 nM | EC50, calcium mobilisation in CCR1-CHO cells [2]: 9.17 nM | calcium mobilisation at 10 nM U83A, percent of the response to endogenous ligand [2]: 60% | minimal effective dose, calcium mobilisation [2]: 7.5 nM | EC50, calcium mobilisation in CCR8-CHO cells [3]: 6.42 nM | calcium mobilisation at 10 nM U83A, percent of the response to endogenous ligand [3]: 65% | calcium mobilisation at 100 nM U83A, percent of the response to endogenous ligand [3]: 85% | EC50, calcium mobilisation in CCR6-CHO cells [4]: 10.3 nM | calcium mobilisation at 10 nM U83A, percent of the response to endogenous ligand [4]: 35% | calcium mobilisation at 100 nM U83A, percent of the response to endogenous ligand [4]: 80% | minimal effective dose, calcium mobilisation [4]: 7.5 nM | EC50, calcium mobilisation in CCR4-CHO cells [5]: 8.96 nM | calcium mobilisation at 10 nM U83A, percent of the response to endogenous ligand [5]: 50% | calcium mobilisation at 100 nM U83A, percent of the response to endogenous ligand [5]: 84% | minimal effective dose, calcium mobilisation [5]: 7.5 nM

B2: CCL3/MIP-1alpha (ligand, human, UniProt P10147 27-92, looked up)
chain: ADTPTACCFSYTSRQIPQNFIADYFETSSQCSKPGVIFLTKRSRQVCADPSEEWVQKYVSDLELSA
EC50, calcium mobilisation in CCR1-CHO cells [2]: 2.75 nM
